Test results taken from patent publication CN106188281A (INST PASTEUR OF SHANGHAI CHINESE ACAD OF SCIENCES, dated 2016).

What was measured:
[1] = target: T1, 诺如病毒GI.1病毒样颗粒 (GI.1 VP1 virus-like particle) (诺如病毒GI.1 (norovirus GI.1), UniProt Q83884 3-530); test: ELISA, 100 ng GI.1 VLP coated per well
T1 construct: VLP assembled from VP1
T1 sequence: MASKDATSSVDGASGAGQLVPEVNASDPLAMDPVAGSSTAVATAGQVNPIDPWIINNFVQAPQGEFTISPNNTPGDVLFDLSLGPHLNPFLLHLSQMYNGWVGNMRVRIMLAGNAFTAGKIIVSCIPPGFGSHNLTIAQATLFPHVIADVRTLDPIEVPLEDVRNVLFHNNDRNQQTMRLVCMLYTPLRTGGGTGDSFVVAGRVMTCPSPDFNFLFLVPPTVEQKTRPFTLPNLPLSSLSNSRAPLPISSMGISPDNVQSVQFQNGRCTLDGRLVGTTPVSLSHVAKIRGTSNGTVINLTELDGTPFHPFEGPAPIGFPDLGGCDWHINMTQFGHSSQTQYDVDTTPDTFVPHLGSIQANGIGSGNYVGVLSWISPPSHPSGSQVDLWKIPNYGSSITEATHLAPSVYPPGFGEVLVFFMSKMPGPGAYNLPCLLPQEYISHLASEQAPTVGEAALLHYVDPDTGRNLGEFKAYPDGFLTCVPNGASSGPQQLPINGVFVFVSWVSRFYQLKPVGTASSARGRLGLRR

[2] = target: T2, 诺如病毒GII.4病毒样颗粒 (GII.4 VP1 virus-like particle) (诺如病毒GII.4 (norovirus GII.4), UniProt P54635 3-539); test: blocking ELISA (surrogate neutralisation), VLP to PGM; reference G9
T2 construct: also called GII.4VLP; 天然结构的GII.4病毒样颗粒
T2 chain: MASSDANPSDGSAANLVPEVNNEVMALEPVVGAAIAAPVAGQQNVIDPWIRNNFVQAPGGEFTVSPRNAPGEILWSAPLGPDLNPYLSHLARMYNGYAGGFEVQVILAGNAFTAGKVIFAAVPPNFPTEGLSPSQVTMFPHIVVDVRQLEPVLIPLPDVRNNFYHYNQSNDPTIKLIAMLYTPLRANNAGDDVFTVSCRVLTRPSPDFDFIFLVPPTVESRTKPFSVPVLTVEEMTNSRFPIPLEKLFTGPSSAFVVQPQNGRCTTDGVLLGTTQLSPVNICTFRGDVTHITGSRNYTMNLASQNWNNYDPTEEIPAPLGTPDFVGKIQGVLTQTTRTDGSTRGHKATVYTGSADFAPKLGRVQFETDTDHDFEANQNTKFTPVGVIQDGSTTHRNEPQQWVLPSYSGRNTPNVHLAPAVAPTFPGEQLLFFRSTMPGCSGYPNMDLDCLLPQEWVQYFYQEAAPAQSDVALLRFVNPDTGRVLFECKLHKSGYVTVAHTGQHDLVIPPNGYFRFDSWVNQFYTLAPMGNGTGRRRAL

[3] = target: T2, 诺如病毒GII.4病毒样颗粒 (GII.4 VP1 virus-like …); test: blocking ELISA (surrogate neutralisation), VLP to PGM; reference D11
[4] = target: T2, 诺如病毒GII.4病毒样颗粒 (GII.4 VP1 virus-like …); test: blocking ELISA (surrogate neutralisation): mAb titrated against 0.5 ug/ml GII.4 VLP, binding of VLP to coated PGM read

B1: 8E1单抗 (抗诺如病毒GII.4型鼠源单克隆抗体8E1) (antibody, V domains shown)
VH: EIQLQQSGPELMKPGASVKISCKASGYSFTDYYMHWVKQSHGKSLEWIGYIDPFNGDTGYNQKFKVRATLTVDESSTTAYMHLSSLTSDDSAVYYCARDDWGSPFSYWGQGTLVTVSA
VL: DIQMTQSPSSLSASLGESVSLTCRASHDIGSNLDWLQQEPDGTIKRLIYATSTLDSGVPKRFSGSRSGSDYSLTISSLESEDFVEYYCLQYASSPRTFGGGTKLEIKR
notes: Mouse IgG1, kappa; also called m8E1
binding result [1]: no binding (tested: 5ug/ml) | fold of neutralising (blocking) activity against G9 [2]: ~16 fold | fold of neutralising (blocking) activity against D11 [3]: > 2 fold | EC50 [4]: 0.0436 mg/L
